According to patent US20240025993A1 (Novartis, published 2024):
Residue numbers refer to the chain shown, from its start. Numbers in names are those of the source.

T1: human CD19 (human, UniProt P15391 20-556)
T1 construct: whole, on cells; also called huCD19; hCD19
T1 sequence (looked up): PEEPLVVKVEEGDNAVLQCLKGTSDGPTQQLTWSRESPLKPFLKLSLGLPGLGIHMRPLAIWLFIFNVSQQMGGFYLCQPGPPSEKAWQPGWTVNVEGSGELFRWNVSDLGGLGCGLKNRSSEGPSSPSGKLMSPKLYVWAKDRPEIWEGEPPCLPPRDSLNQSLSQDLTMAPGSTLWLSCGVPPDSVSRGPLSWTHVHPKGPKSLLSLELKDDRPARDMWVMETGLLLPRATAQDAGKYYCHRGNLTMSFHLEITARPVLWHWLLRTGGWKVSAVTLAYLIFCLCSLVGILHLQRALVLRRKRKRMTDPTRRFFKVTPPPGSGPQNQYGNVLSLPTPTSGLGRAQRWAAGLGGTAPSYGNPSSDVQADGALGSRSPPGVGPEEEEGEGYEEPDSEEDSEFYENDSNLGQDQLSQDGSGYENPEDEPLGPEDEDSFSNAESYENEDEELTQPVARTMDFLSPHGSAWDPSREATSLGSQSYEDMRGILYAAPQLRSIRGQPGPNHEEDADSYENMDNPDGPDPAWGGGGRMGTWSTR

B1: NEG258 (antibody, V domains shown)
VH: QVQLVQSGAEVKKPGASVKVSCKASGYTFTTYWIQWVRQAPGQRLEWMGAVYPGDADTRYTQKFQGRVTLTADRSASTAYMELSSLRSEDTAVYYCGRDAGLEYYALDYWGQGTLVTVSS
VL: EIVMTQSPATLSVSPGERATLSCRASQDVGTAVAWYQQKPGQAPRLLIYWASTRHTGIPARFSGSGSGTEFTLTISSLQSEDFAVYFCQQYANFPLYTFGQGTKLEIK
notes: also called CD19 antibody NEG258; anti-CD19 antibody NEG258
B2: Anti-CD3 human IgG1 antibody, wild type Fc (antibody)
heavy: not shown
light: QAVVTQEPSLTVSPGGTVTLTCRSSTGAVTTSNYANWVQQKPGQAPRGLIGGTNKRAPWTPARFSGSLLGDKAALTLSGAQPEDEAEYFCALWYSNLWVFGGGTKLTVLGQPKAAPSVTLFPPSSEELQANKATLVCLISDFYPGAVTVAWKADSSPVKAGVETTTPSKQSNNKYAASSYLSLTPEQWKSHRSYSCQVTHEGSTVEKTVAPTECS
notes: also called WT; WT IgG1
B3: Anti-CD3 human IgG1 antibody, LALASKPA Fc variant (L234A/L235A/S267K/P329A) (antibody)
heavy: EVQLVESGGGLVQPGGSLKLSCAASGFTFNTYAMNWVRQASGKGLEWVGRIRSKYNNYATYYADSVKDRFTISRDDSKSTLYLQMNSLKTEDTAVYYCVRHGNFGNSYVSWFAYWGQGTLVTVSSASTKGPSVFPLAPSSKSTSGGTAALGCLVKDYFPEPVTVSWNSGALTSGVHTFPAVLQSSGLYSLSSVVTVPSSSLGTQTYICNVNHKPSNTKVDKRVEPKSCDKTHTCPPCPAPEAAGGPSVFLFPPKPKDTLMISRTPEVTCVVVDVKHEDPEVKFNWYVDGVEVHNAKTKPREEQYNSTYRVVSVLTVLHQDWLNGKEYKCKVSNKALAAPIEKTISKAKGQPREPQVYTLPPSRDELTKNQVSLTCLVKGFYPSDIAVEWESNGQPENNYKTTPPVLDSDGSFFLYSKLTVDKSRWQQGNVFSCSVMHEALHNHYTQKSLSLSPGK
light: B2 light
notes: also called FCV-4
B4: Anti-CD3 human IgG1 antibody, DAPA Fc variant (D265A/P329A) (antibody)
heavy: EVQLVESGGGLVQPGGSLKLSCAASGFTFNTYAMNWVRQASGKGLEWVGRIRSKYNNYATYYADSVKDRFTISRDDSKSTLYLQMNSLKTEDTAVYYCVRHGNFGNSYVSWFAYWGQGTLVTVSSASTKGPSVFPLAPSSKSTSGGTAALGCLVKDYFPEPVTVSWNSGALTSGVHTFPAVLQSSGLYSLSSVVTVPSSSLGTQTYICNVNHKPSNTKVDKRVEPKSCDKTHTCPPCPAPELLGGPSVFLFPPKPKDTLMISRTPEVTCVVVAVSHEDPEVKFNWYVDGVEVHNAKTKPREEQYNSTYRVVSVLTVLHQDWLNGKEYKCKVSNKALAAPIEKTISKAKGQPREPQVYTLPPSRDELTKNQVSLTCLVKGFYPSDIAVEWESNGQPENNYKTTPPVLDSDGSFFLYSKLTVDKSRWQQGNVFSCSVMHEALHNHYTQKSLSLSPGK
light: B2 light
notes: also called DAPA-IgG1; FCV-8
B5: Anti-CD3 human IgG1 antibody, LALAGA Fc variant (L234A/L235A/G237A) (antibody)
heavy: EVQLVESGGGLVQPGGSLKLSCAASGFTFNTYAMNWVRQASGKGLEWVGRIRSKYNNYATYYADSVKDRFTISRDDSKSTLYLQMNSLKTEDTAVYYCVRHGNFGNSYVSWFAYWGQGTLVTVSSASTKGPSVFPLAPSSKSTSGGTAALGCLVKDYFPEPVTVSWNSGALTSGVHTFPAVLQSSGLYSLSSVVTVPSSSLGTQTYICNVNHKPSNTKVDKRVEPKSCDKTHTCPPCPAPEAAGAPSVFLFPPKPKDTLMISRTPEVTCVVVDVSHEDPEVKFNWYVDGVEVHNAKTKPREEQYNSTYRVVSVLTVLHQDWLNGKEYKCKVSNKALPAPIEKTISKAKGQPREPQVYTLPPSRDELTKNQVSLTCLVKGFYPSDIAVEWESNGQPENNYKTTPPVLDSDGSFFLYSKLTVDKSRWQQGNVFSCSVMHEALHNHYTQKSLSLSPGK
light: B2 light
notes: also called LALAGA-IgG1; FCV-2
B6: Anti-CD3 human IgG1 antibody, DAPASK Fc variant (D265A/P329A/S267K) (antibody)
heavy: EVQLVESGGGLVQPGGSLKLSCAASGFTFNTYAMNWVRQASGKGLEWVGRIRSKYNNYATYYADSVKDRFTISRDDSKSTLYLQMNSLKTEDTAVYYCVRHGNFGNSYVSWFAYWGQGTLVTVSSASTKGPSVFPLAPSSKSTSGGTAALGCLVKDYFPEPVTVSWNSGALTSGVHTFPAVLQSSGLYSLSSVVTVPSSSLGTQTYICNVNHKPSNTKVDKRVEPKSCDKTHTCPPCPAPELLGGPSVFLFPPKPKDTLMISRTPEVTCVVVAVKHEDPEVKFNWYVDGVEVHNAKTKPREEQYNSTYRVVSVLTVLHQDWLNGKEYKCKVSNKALAAPIEKTISKAKGQPREPQVYTLPPSRDELTKNQVSLTCLVKGFYPSDIAVEWESNGQPENNYKTTPPVLDSDGSFFLYSKLTVDKSRWQQGNVFSCSVMHEALHNHYTQKSLSLSPGK
light: B2 light
notes: also called DAPASK-IgG1; FCV-5
B7: Anti-CD3 human IgG1 antibody, GADAPASK Fc variant (G237A/D265A/P329A/S267K) (antibody)
heavy: B6 heavy with G245A
light: B2 light
notes: also called FCV-7
B8: Anti-CD3 human IgG1 antibody, DANAPA Fc variant (D265A/N297A/P329A) (antibody)
heavy: B6 heavy with K275S, N305A
light: B2 light
notes: Variant made by PCR mutagenesis of the anti-CD3 WT IgG1 heavy chain; also called DANAPA-IgG1; FCV-9
B9: Anti-CD3 human IgG1 antibody, LALAPG Fc variant (L234A/L235A/P329G) (antibody)
heavy: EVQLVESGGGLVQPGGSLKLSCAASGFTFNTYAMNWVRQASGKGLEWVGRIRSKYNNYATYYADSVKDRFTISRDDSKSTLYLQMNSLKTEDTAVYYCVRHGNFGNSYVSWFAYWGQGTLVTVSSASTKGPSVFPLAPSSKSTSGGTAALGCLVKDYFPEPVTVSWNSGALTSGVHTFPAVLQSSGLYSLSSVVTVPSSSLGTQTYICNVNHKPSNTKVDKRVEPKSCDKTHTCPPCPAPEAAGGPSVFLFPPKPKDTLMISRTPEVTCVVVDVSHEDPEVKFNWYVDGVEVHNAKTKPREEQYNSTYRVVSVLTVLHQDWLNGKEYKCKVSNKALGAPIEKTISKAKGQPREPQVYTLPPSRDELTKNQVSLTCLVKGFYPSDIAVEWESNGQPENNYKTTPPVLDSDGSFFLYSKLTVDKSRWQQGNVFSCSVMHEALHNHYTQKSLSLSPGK
light: B2 light
notes: also called LALAPG-IgG1; FCV-3
B10: Anti-CD3 human IgG1 antibody, LALAPA Fc variant (L234A/L235A/P329A) (antibody)
heavy: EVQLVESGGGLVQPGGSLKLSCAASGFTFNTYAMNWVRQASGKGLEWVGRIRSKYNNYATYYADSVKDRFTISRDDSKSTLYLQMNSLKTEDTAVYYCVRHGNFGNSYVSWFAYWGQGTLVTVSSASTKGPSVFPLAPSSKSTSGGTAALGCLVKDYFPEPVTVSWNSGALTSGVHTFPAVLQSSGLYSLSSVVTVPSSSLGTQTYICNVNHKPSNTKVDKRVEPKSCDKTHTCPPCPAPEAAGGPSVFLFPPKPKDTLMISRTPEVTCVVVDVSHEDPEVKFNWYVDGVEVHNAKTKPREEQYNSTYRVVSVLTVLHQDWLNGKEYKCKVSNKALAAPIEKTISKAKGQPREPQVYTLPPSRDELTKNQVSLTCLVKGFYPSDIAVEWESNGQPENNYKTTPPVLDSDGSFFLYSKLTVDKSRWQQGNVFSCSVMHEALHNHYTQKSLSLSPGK
light: B2 light
notes: also called LALAPA-IgG1; FCV-1
B11: Anti-CD3 human IgG1 antibody, R214K allotype (antibody)
heavy: not shown
light: B2 light
notes: also called WT allotype; WT allotype R214K
B12: Anti-CD3 human IgG1 antibody, GADAPA Fc variant (G237A/D265A/P329A) (antibody)
heavy: B6 heavy with G245A, K275S
light: B2 light
notes: also called GADAPA-IgG1; FCV-6
B13: Anti-CD19-CD3 / CD58 trispecific antibody, DANAPA IgG1 Fc (Table 33) (other)
heavy: QVQLVQSGAEVKKPGASVKVSCKASGYTFTTYWIQWVRQAPGQRLEWMGAVYPGDADTRYTQKFQGRVTLTADRSASTAYMELSSLRSEDTAVYYCGRDAGLEYYALDYWGQGTLVTVSSASTKGPSVFPLAPSSKSTSGGTAALGCLVKDYFPEPVTVSWNSGALTSGVHTFPAVLQSSGLYSLSSVVTVPSSSLGTQTYICNVNHKPSNTKVDKRVEPKSCGGGGSGGGGSEVQLVESGGGLVQPGGSLKLSCAASGFTFNTYAMNWVRQASGKGLEWVGRIRSKYNNYATYYADSVKDRFTISRDDSKSTLYLQMNSLKTEDTAVYYCVRHGNFGNSYVSWFAYWGQGTLVTVSSGGGGSGGGGSGGGGSGGGGSQAVVTQEPSLTVSPGGTVTLTCRSSTGAVTTSNYANWVQQKPGQAPRGLIGGTNKRAPWTPARFSGSLLGDKAALTLSGAQPEDEAEYFCALWYSNLWVFGGGTKLTVLGGGGSDKTHTCPPCPAPELLGGPSVFLFPPKPKDTLMISRTPEVTCVVVAVSHEDPEVKFNWYVDGVEVHNAKTKPREEQYASTYRVVSVLTVLHQDWLNGKEYKCKVSNKALAAPIEKTISKAKGQPREPQVCTLPPSREEMTKNQVSLSCAVKGFYPSDIAVEWESNGQPENNYKTTPPVLDSDGSFFLVSKLTVDKSRWQQGNVFSCSVMHEALHNHYTQKSLSLSPGK
chain: SQQIYGVVYGNVTFHVPSNVPLKEVLWKKQKDKVAELENSEFRAFSSFKNRVYLDTVSGSLTIYNLTSSDEDEYEMESPNITDTMKFFLYVLESGGGGSDKTHTCPPCPAPELLGGPSVFLFPPKPKDTLMISRTPEVTCVVVAVSHEDPEVKFNWYVDGVEVHNAKTKPREEQYASTYRVVSVLTVLHQDWLNGKEYKCKVSNKALAAPIEKTISKAKGQPREPQVYTLPPCREEMTKNQVSLWCLVKGFYPSDIAVEWESNGQPENNYKTTPPVLDSDGSFFLYSKLTVDKSRWQQGNVFSCSVMHEALHNHYTQKSLSLSPGK
light: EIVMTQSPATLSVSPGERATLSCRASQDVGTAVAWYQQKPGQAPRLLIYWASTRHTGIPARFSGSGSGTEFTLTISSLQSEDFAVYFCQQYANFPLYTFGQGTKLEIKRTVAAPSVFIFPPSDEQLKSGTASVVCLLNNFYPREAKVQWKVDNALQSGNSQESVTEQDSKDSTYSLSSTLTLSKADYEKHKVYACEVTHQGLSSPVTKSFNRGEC
B14: Anti-CD19-CD3 / CD58 trispecific antibody, GADAPASK IgG1 Fc (Table 33) (other)
heavy: B13 heavy with G509A, S539K, A569N
chain: B13 chain with G116A, S146K, A176N
light: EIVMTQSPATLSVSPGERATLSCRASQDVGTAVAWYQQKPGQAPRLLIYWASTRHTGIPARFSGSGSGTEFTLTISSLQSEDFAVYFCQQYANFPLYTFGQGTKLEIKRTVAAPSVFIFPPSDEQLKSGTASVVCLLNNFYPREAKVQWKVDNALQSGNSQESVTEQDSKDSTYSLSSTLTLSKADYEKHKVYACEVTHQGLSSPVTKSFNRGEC
B15: Anti-CD19-CD3 / CD58 trispecific antibody, LALASKPA IgG1 Fc (Table 33) (other)
heavy: B13 heavy with L506A, L507A, A537D, S539K, A569N
chain: B13 chain with L113A, L114A, A144D, S146K, A176N
light: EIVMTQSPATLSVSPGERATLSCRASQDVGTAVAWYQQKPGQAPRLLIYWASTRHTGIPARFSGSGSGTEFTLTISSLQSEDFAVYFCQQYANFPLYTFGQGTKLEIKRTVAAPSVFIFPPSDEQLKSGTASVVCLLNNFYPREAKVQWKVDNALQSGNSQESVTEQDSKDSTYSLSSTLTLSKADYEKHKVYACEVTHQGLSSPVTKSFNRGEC

What follows are binders tested against T1, human CD19 (assay: summary sentence of the examples; no method at this place).

Row | Binder | binding result
1 | B1 | binds

What follows are binders tested against T2, human C1q (human, UniProt P02745 23-245; P02746 28-253; P02747 29-245) (assay: SPR (Biacore T200), antibody amine-coupled on CM5 chip, C1q as analyte).
T2 construct: also called hC1q
Procedure: (§1) Binding to human C1q was evaluated. All SPR buffers were prepared using deionized water. The samples were prepared in running buffer PBS pH 7.4 with 0.005% Tween-20. SPR measurements were measured on a Biacore T200 (GE-Healthcare Life Sciences) controlled by Biacore T200 control software version 2.0.1. Surface plasmon resonance was conducted using a Biacore T200 to assess binding affinity of antibody IgG1 WT and variants to human Fc receptors, including FcγR1A, and FcγR3A (V158) and human C1q.
(§2) The antibodies were covalently immobilized on a CM5 sensor chip whereas Fc gamma receptors or human C1q served as analytes in solution (FIG. 38). For Fc gamma receptors binding evaluation (method 1), antibodies were diluted in 10 mM sodium acetate pH 4 and immobilized at a density of approximately 950 resonance units (RU's) on the CM5 sensor chip applying a standard amine coupling procedure. Flow cell 1 was blank immobilized to serve as a reference. The kinetic binding data were collected by subsequent injections of 1:2 dilution series of the human Fc gamma receptors on all flow cells at a flow rate of 30 μl/min and at a temperature of 25° C. The Fc gamma receptors were diluted in the running buffer at concentrations ranging from 0.2 nM to 1000 nM (e.g. FcγR1A: 0.2 to 100 nM, FcγR3A V158: 1.95 to 1000 nM). The chip surface was regenerated using 20 mM glycine pH 2.0 solution after each measuring cycle. For human C1q binding evaluation (method 2), antibodies were diluted in 10 mM sodium acetate pH 4 and immobilized at a density of approximately 7000 resonance units (RU's) on the CM5 sensor chip applying a standard amine coupling procedure. Flow cell 1 was blank immobilized to serve as a reference. The kinetic binding data were collected by subsequent injections of 1:2 dilution series of the human C1q on all flow cells at a flow rate of 30 μl/min and at a temperature of 25° C. The human C1q was diluted in the running buffer at concentrations ranging from 0.49 nM to 250 nM. The chip surface was regenerated using 50 mM NaOH solution after each measuring cycle. Zero concentration samples (blank runs) were measured for both methods to allow double-referencing during data evaluation.
(§3) Data were evaluated using the Biacore T200 evaluation software.

T2 sequence (P02745 23-245 limits assumed, chain 1 of 3): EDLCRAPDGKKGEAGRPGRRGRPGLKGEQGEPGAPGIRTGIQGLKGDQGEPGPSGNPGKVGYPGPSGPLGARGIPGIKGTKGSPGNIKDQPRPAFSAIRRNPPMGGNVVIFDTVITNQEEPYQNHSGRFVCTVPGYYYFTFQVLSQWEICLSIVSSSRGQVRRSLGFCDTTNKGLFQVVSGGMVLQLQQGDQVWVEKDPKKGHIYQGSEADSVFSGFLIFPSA
T2 sequence (P02746 28-253 limits assumed, chain 2 of 3): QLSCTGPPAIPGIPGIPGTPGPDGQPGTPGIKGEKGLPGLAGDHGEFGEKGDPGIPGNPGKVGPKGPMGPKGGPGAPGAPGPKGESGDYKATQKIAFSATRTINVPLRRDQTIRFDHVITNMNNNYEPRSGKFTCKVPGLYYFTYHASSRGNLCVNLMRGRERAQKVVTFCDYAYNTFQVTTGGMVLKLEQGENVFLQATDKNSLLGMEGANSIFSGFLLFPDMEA
T2 sequence (P02747 29-245 limits assumed, chain 3 of 3): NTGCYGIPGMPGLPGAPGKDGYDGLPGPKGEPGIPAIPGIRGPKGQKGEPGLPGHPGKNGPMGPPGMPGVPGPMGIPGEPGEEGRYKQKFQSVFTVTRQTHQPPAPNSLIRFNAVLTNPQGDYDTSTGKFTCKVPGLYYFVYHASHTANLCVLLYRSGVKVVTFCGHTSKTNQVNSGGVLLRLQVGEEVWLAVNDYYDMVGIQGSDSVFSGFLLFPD

Row | Binder | Maximum response at 250 nM hC1q (RU)
2 | B2 | 680 RU
3 | B3 | 95 RU
4 | B4 | 85 RU
5 | B5 | 335 RU
6 | B6 | 86 RU
7 | B7 | 168 RU
8 | B8 | 29 RU
9 | B9 | 245 RU
10 | B10 | 270 RU
11 | B11 | 640 RU
12 | B12 | 203 RU

What follows are binders tested against T3, human Fc gamma receptor 1A (human, UniProt P12314 16-288, limits assumed) (assay: SPR (Biacore T200), antibody amine-coupled on CM5 chip, receptor as analyte).
T3 construct: also called hFcgammaRIA; hFcγRIA
Procedure: as §1, §2, §3

T3 sequence (P12314 16-288 limits assumed): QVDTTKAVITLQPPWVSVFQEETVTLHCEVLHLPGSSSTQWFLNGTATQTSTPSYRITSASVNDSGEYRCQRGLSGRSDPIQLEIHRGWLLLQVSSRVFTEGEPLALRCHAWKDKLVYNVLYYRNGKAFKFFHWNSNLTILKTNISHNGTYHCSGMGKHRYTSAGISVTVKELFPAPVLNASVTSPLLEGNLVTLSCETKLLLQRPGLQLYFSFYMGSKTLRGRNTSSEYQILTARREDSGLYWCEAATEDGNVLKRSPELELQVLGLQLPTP

Row | Binder | Maximum response at 100 nM hFcgammaRIA (RU)
13 | B2 | 193 RU
14 | B4 | 63 RU
15 | B10 | 26 RU
16 | B11 | 193 RU

Each binder was assayed against T4, human Fc gamma receptor 3A, V158 variant (human, UniProt P08637 17-208) in the same assay as above.
T4 construct: also called hFcgammaRIIIA V158; FcγR3A (V158)
Procedure: as §1, §2, §3

T4 sequence (P08637 other isoform, or with tags, fused parts or gaps mutant): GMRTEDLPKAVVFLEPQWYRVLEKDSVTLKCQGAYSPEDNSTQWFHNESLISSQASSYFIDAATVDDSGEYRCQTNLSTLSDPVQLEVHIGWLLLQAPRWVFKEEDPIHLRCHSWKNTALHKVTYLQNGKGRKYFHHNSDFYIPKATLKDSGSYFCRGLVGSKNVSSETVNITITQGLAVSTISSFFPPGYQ

Row | Binder | Maximum response at 1000 nM hFcgammaRIIIA V158 (RU)
17 | B2 | 79 RU
18 | B3 | 20 RU
19 | B4 | 15 RU
20 | B5 | 25 RU
21 | B6 | 15 RU
22 | B7 | 12 RU
23 | B8 | 31 RU
24 | B9 | 33 RU
25 | B10 | 19 RU
26 | B11 | 72 RU
27 | B12 | 9 RU

These binders were tested against T3, human Fc gamma receptor 1A (assay: SPR (Biacore T200), antibody amine-coupled on CM5 chip, human FcγRIA as analyte; maximum response (RU)).
Procedure: Surface plasmon resonance was conducted using a Biacore T200 to assess binding affinity of antibody WT and variants to human FcγR1A.
The antibodies were covalently immobilized on a CM5 sensor chip whereas Fc gamma receptor 1A served as analyte in solution (FIG. 38). Antibodies were diluted in 10 mM sodium acetate pH 4 and immobilized at a density of approximately 950 resonance units (RU) on the CM5 sensor chip applying a standard amine coupling procedure. Flow cell 1 was blank immobilized to serve as a reference. The kinetic binding data were collected by subsequent injections of 1:2 dilution series of the human Fc gamma receptor 1A on all flow cells at a flow rate of 30 μl/min and at a temperature of 25° C. […] The chip surface was regenerated using 20 mM glycine pH 2.0 solution after each measuring cycle. Zero concentration samples (blank runs) were measured to allow double-referencing during data evaluation.
Data were evaluated using the Biacore T200 evaluation software. The raw data were double referenced, i.e. the response of the measuring flow cell was corrected for the response of the reference flow cell, and in a second step the response of a blank injection was subtracted. Then the sensorgrams were fitted by applying a 1:1 kinetic binding model to calculate dissociation equilibrium constants. In addition, the maximum response reached during the experiment was monitored. Maximum response describes the binding capacity of the surface in terms of the response at saturation.

Row | Binder | binding result
28 | B13 | no binding (tested: 25 nM)
29 | B14 | no binding (tested: 25 nM)
30 | B15 | no binding (tested: 25 nM)
